From article PMC7102964

What was measured:
Assay in all cases: BLI
Details in all cases: none stated (T7 transcript); 3' end periodate-oxidised for biotin hydrazide; BLI (Octet RED96), biotin-tRNA on streptavidin tips: 50 mM Tris-HCl pH 8.0, 150 mM NaCl, 0.002% Tween-20, 25 C; 1:1 model
[1] = test system: OSGEPL1-K203A (Homo sapiens)
[2] = test system: OSGEPL1-K203E (Homo sapiens)
[3] = test system: OSGEPL1 (mature, delta-MTS) (Homo sapiens)
[4] = test system: OSGEPL1-K299Q (Homo sapiens)
[5] = test system: OSGEPL1-K203R (Homo sapiens)
[6] = test system: OSGEPL1-K203Q (Homo sapiens)

Substance | Kd [1] [µM] | Kd [2] [µM] | Kd [3] [µM] | Kd [4] [µM] | Kd [5] [µM] | Kd [6] [µM]
hmtRNAThr | 29 | 8.5 | 6.7 | 6.8 | 3.6 | 14
hmtRNAThr-U34C |  |  | 5.5 |  |  | 
hmtRNAThr-U34G |  |  | 4.1 |  |  | 
